From the DeepSol protein solubility set

Experiment: soluble on expression in E. coli; label from the status in PepcDB or PDB records

Sequence | soluble on expression in E. coli
MGSDKIHHHHHHMPFKAKDQQGNIVLATDFKSVLEIRKNFPKGSLFCPFCQTLMFPRKRQNTSLHFVHTHPCTTVMEHHPESPEHLQGKLEISKYFQEVYKGMIDAQEAFIEIEHPISEAGKNGRIADVAVVFSTGYRIIGECQLAKIEAADIYQRTQDYYSISADVLWFLGGAADTPENRQAAVDLDVFAGTINFTYST | not soluble
MSDEWEQLTVELRKIPRGTEAAPQYLRHLMKMFVADFETAVSKRFDVKFWNKLKSMMDEITKAMENDRLVNHNVQNLAIGFLTDLSLLVHYHYEIPNYGNDISKQLTWTPDVFLNRKPIKSKKNSRVFMAYVLLRMGDLMRYKENYPKAQEYYEQSCRINPADGAVWNQLGLISSLGAKNLESVYFHTRALHATMEFPTASGGLTNIFKNFANRDISRPMPIKDLYLSCLGRIHFLLEIEDSSVHLQKIGEEAATSKEMIVPLMSVYKHLEDGTELEQRAVEYVKTIWCTAYRSLLKTLDDYKEESKKLADVPHLLHILALLLCAPKLLRGIEDQTEDEVTSICEWLLCANCDEKIKDSDAFGYFHCLQRIQYPLTRTQLAQKLVEIEDEDESKDSDQSTIPEEDQKSLSTDTSRIQNEDSEPESESESSDEEVLQRGRRRGRNPNLDESVETDEDEF | not soluble
MTVEQNEFLSSVQLQILAEQAIKQYPNEYQGSVKLLCQSENATFLVTTAQAKYALRIHRPNYHHLQDIESELAWLDALNQSGIEVPLAIADQDGQRVITLKLAEGISRYAVLFNWVNGSMPTTDVDPTAFQQLGQITAALHQHSKSWKRPEQFNRIVWNHDTMVGAQGHWGNWKHAPHLDQADHAVVEEAIARISTELCQYGAGEDRYGLIHADLRLTNLLLQDQQIGVIDFDDCGMSWFMHDLAAAISFNEHLDAAPQWVEHWLTGYEKTGHVQNHDYVMIPTFIMQRRIQMMAWNGSHAHTEMALSLGDQWSNETVRLCKKYLNGEMPVGRSNA | not soluble
MLGACVEKPSTLERVKEDGVLRVVTRNSPATYFQDRNGETGFEYELVKRFADDLGVELKIETADNLDDLFDQLGQPKGPVLAAAGLVSSEQRKQQVRFSHPYLEVTPQVIYRNGRSRPTTAQDLVGKHIMVLKGSTHAEQLAELKLKYPGIEYEESDAVEVVDLLRMVDEGQIDLTLVDSNELAMNQVYFPNVRVAFDLGDARSQSWAVAAGDDNSLLNEINSFLDKVEKNGTLQRLKDRYYGHVDVLGYVGAYTFAQHLQQRLPKYEKHFKASAKQEKLDWRLLAAVGYQESMWQAEVTSKTGVRGLMMLTQNTAQAMGVSNRLDPKQSISGGAKYLAYIKEQLDDKIEEPDRTWFALAAYNVGTGHLDDARKLAEKEGLNPNKWLDVKKMLPRLSQKQWYSKTRYGYARGGEPVHFVANIRRYYDILTWVTQPQLEGDQVAEGNLHVPGVNKTKPPEENPPLLEHHHHHH | soluble
MHRRAVVLFTAALLLGLGLPRASAESRQDEPTSLITSPGYTRTTASPGPGLTLFTYQNPDDDRVVHVLRADPDAAPLTVESTAGTSGARAEKTTDMLKSTTGYAPRWPHAGLNGGFWYRQGDTLAFMGISVQEGVVQSASCSAAGRGEAALIQHGRPYIGDFTTHLAVTAPGAAPMPLDGVNRHPGWMTGCAQGSGATADRSIGGGVFADASEIIAFTSRFKAPTPVPDADARFTEDDDPGAEAVVAADGTVLSLNPNGRGGVTVPTGGRVLQGTGTGADWLRAHATPGTDLAFEERLHDERFGDDIPLDSSVDVVNGHYPLVHNAQYAYTGQNTAVDPRSAIAVDGPGRTLFVTATGKSGRNGVTLDEFARILLDLGAVDGLNMDGGGSTTLVVEQAVVNRPSDSTGERPVADSLYIGHGGYGHYADLEHHHHHH | not soluble
MSEFLTHPFEPFFDKDSKILILGSFPSIKSRQDGFYYQHPRNRFWPILETLFNAKLENITEQQAFLRKKHIALWDVLQSCKIKNSDDKTISYAKANDLNLILSQTKIQAIFTTGQSAYRFFVKFHPRLEAIALPSTSPANLNFSFEQLLQNYEIIKKFTKLEHHHHHH | soluble
MDVSMLQSPQKRIKTIQKLAVSKKDVHDFKDIFEMLEEQKEKRNINIIQYDSLDDLSGDWSEYTFFCGNFDSDLFRTLTKHQETQALFIIGASVLKNKLLKNEDLMTLRAARPLYCELMKDVTMKLAAEVPNKRELVDLVHYMGGSVRKDTVSRTNVFIAAKVEAKVQSISLVGVPTMRADWVTECWKHRDDSYFDVMEPCFVDKHRLGVFEGLSLFFHGFKQTEIDDMLRSLENTGGKLAPSPTLATHVVYNPDNDEVETLAVSSNQVHVTKEWFWVSLHRGCCAIEDNFALPTGKLHRKPLESSSVSSPIGKSLRSQNSRSLSSMRDCSVEGPTSLNMTPDYIYSNDDVENSCKSPRQPSKRLRVCMEMVETEKNYLSLLKLVVKFKEALECEISHNEFMSRSDVAMMFGKLDPILELHERIFARLTVMSNEANTLLTVVNGKKNDDKNLDFAQVWIDAKEEMKKAYPQYINSYDTIKRLFDKQDRENSKFHTFCKAKESNPEFHRLKLTDLMVKPVQRLPSVILLLKEMAKKSDSKLKNNAEEAAKAIDEVLKTANKTREKNDNFISHLSKFTDIENVPPILVAANRMFIRELVVSPIASTSPGLQQFAKMKLFLFHDVLIITKIRSEKNTMQRLARHASFASLHSRQRRPYRYIDQIQLNTMRSAFRIRAPDEIAKCLELQQQNGSTKPNVFVWCLIHRDEQGGDIDTVFESNDDEEVRDFLDDIHVKILSDCGRFFYSSDPSDMNEINDAMVSDMTTRYFRNLCGAKPQYGHGSQMNITEWSHNESFMPPPQSQSRMRRAFSNAQLTLATTLGFGRNQSRNNLGQINENTTFLQSPRVSCDPAALANMTSVGGLPGCQSESESTPKRGIRSRLTSTTFLGGRHNILGRNTSMRRQATGFAHSEKELPRSKTSSYRVTDI | not soluble
IKVILITGMPGSGKSEFAKLLKERGAKVIVMSDVVRKRYSIEAKPGERLMDFAKRLREIYGDGVVARLCVEELGTSNHDLVVFDGVRSLAEVEEFKRLLGDSVYIVAVHSPPKIRYKRMIERLRSDDSKEISELIRRDREELKLGIGEVIAMADYIITNDSNYEEFKRRCEEVTDRVLK | soluble
MGSDKIHHHHHHMIYNYGFLDENTKKEIRRKILKAISIPGYQVPFGSRELPIAKGWGTGGLQLTLSLIGKNDVVKVIDQGSDDSTNACNIRSFIASVSNVETTKDTLEATLIQTRHRIPEEKLKSNQILIFQVPIPETLRIVEPSEVETRRMHSEEDYSRMWVYLYEDIVRFNDISIAVEYPCKVNDRYLMNPSPIPRFDIKKLNMSDNLFLFGAGREKRIYAIPPYTKVEPLEFEDYKFEEEKFEGKYCSLCNSTNTFLDEVYDSDTNEKYYSCSDTSYCEKVRLKNNSIDVTIGGTWNE | not soluble
MIYTLENQHLKISLSNHGGELHSIKGKKDNTEFLWSGDEAYWKYHAPILFPIVGKVFNGKYTVDGITYELPQHGLARVRDFEMIEQTKNSISFELKYSEDTLKVYPFKFSLIIKYTLNDINLSIDYIVKNLDNKEMYFSIGAHPAFMCPIENDKFDDYYFEFNKKENASIMQLVGPGYFSKEEKPYLKDEHIINLSTDLFKNDALVFKNLKSNKISLKSKNHKKYLEFDFGEFPYLGLWTKDTGAPFVCIEPWFGHADFDGFNGEFKDKAAIQSLMPNKEFHCNYNISFFELEHHHHHH | soluble
MLLEAIFHEAKGSYAYPISETQLRVRLRAKKGDVVRCEVLYADRYASPEEELAHALAGKAGSDERFDYFEALLECSTKRVKYVFLLTGPQGEAVYFGETGFSAERSKAGVFQYAYIHRSEVFTTPEWAKEAVIYQIFPERFANGDPSNDPPGTEQWAKDARPRHDSFYGGDLKGVIDRLPYLEELGVTALYFTPIFASPSHHKYDTADYLAIDPQFGDLPTFRRLVDEAHRRGIKIILDAVFNHAGDQFFAFRDVLQKGEQSRYKDWFFIEDFPVSKTSRTNYETFAVQVPAMPKLRTENPEVKEYLFDVARFWMEQGIDGWRLDVANEVDHAFWREFRRLVKSLNPDALIVGAIWHDASGWLMGDQFDSVMNYLFRESVIRFFATGEIHAERFDAELTRARMLYPEQAAQGLWNLLDSHDTERFLTSCGGNEAKFRLAVLFQMTYLGTPLIYYGDEIGMAGATDPDCRRPMIWEEKEQNRGLFEFYKELIRLRHRLASLTRGNVRSWHADKQANLYAFVRTVQDQHVGVVLNNRGEKQTVLLQVPESGGKTWLDCLTGEEVHGKQGQLKLTLRPYQGMILWNGR | soluble
MAELIHSTIGRLLEQTADAYPDRDAVVYPDRNIRYTYAQFDSLCRQTAKGLMRMGIGKGDHVAIWASNISEWLAVQFATAKIGAVLVTVNTNYQAHELDYLLKQSDAAALIIMDSYRGTSYPDIVNSLIPELQEAKPGQLKSERYPFLKTLIYIGNKRLSGMYHWDDTEILAKTVTDAELEERMNSLDKDNVINMQYTSGTTGFPKGVMLTHFNVINNAANIAECMALTSQDRMCIPVPFFHCFGCVLGVLACVSVGAAMIPVQEFDPVTVLKTVEKEKCTVLHGVPTMFIAELHHPDFDAYDLSTLRTGIMAGSPCPSEVMKAVIERMGMKDITIAYGQTEASPVITQTRANDSFIRRVETTGRALPHTEVKIVEPGTCQEVQRGMQGELCTRGYHVMKGYYKDKDATRKAINHDGWLFTGDLAVMDEDGYCRITGRLKDMLIRGGENIYPREIEEFLYQHPAVLDVQVVGVPDAKFGEEAAAWIKLKDGKSVSPDELKAYCKGKIARHKIPRYVIFTDDYPMTASGKIQKY | not soluble
METQWTRMTANEAAEIIQHNDMVAFSGFTPAGSPKALPTAIARRANEQHEAKKPYQIRLLTGASISAAADDVLSDADAVSWRAPYQTSSGLRKKINQGAVSFVDLHLSEVAQMVNYGFFGDIDVAVIEASALAPDGRVWLTSGIGNAPTWLLRAKKVIIELNHYHDPRVAELADIVIPGAPPRRNSVSIFHAMDRVGTRYVQIDPKKIVAVVETNLPDAGNMLDKQNPMCQQIADNVVTFLLQEMAHGRIPPEFLPLQSGVGNINNAVMARLGENPVIPPFMMYSEVLQESVVHLLETGKISGASASSLTISADSLRKIYDNMDYFASRIVLRPQEISNNPEIIRRLGVIALNVGLEFDIYGHANSTHVAGVDLMNGIGGSGDFERNAYLSIFMAPSIAKEGKISTVVPMCSHVDHSEHSVKVIITEQGIADLRGLSPLQRARTIIDNCAHPMYRDYLHRYLENAPGGHIHHDLSHVFDLHRNLIATGSMLGLEHHHHHH | not soluble
MGSDKIHHHHHHMDYYAGIDVSLELSSVCIVNQDGKIFREVKVASDPEALIGLFGGLGVALSRIGLEAGPLSQWLHAGLTAGGYDVVLLETRHVKAGLSAMTVKTDRKDARGIAHLLRMGWFRPVHCKTNSAQEIRVLLVGRKLLQSKMGDLEQGIRGLLRGFGLKVGVISKGRFAARIRELVAGQAMLETVAEPMLRARDALRAEFTLLHRQILAIVRKDDLCRRLMTVPGVGPLVALTFKSGIDDPSRFTSSKTVGAHFGLTPKKYQSGETDITGGITRTGDAMVRMALYEAAQVLLTRSQRFSSLKRWALEVAKRRGMKRAKVALARKLATVLHRMWIDGSDFRWGKEITSA | not soluble
MGSDKIHHHHHHMMADERIEVLKDILLELHHGASAESVQERFNQHFKGVSAIEISMMEHELMNADTGITFEDVMGLCNVHANLFKGAIADVDVPDAEQEGHPVKVFKDENLALRAAIMRIRRIIENYTKPENEDFRQEILKGLKHQFDLLGQFYHHYTRKEKLFFPIMERYGHDSPPKVMWGVDDDIRDLFKDAKATLAKLPDGSIEELSQKFEAFAKEFEEMIFKEEAILLMILLESFTQDDWLQIASESDAYGYAILKPTEKWIPHRESFDNEADADTSDNQLADALNQVQDANSPEGTNTKVINTPEGQFTITFKPKEKEAAADRTTQQPFGNGYLSVEQANLILNHLPLEITFVNKDDIFQYYNDSVPAAEMVFKRTPSQVGRNVELCHPPKVLDKVKKVFELLRNGQRDKVNMWFQSERLGKFVYVTYAAVRDQAGDFQGVLEYVQDIKPFFELDSEFNRDI | not soluble
LQNKFKKYSKIPTGNGMTGRDVAIKMLQDNGIYDVQVTHTPGQLTDHYNPANKTVNLSEGVYDSNSIMAAAVAAHECGHAVQHARAYAPLTLRSK | not soluble
